Results on five molecules are retold here after PMC6509496, “Crystal structure of the TreS:Pep2 complex, initiating α-glucan synthesis in the GlgE pathway of mycobacteria” (The Journal of Biological Chemistry, 2019).

B3: Mycobacterium smegmatis trehalose synthase (TreS) (enzyme, M. smegmatis, UniProt A0R6E0 1-593, looked up)
chain: MEEHTQGSHVEAGIVEHPNAEDFGHARTLPTDTNWFKHAVFYEVLVRAFYDSNADGIGDLRGLTEKLDYIKWLGVDCLWLPPFYDSPLRDGGYDIRDFYKVLPEFGTVDDFVTLLDAAHRRGIRIITDLVMNHTSDQHEWFQESRHNPDGPYGDFYVWSDTSDRYPDARIIFVDTEESNWTFDPVRRQFYWHRFFSHQPDLNYDNPAVQEAMLDVLRFWLDLGIDGFRLDAVPYLFEREGTNCENLPETHAFLKRCRKAIDDEYPGRVLLAEANQWPADVVAYFGDPDTGGDECHMAFHFPLMPRIFMAVRRESRFPISEILAQTPPIPDTAQWGIFLRNHDELTLEMVTDEERDYMYAEYAKDPRMKANVGIRRRLAPLLENDRNQIELFTALLLSLPGSPVLYYGDEIGMGDIIWLGDRDSVRTPMQWTPDRNAGFSKATPGRLYLPPNQDAVYGYHSVNVEAQLDSSSSLLNWTRNMLAVRSRHDAFAVGTFRELGGSNPSVLAYIREVTRQQGDGGAKTDAVLCVNNLSRFPQPIELNLQQWAGYIPVEMTGYVEFPSIGQLPYLLTLPGHGFYWFQLREPDPEPGAQQ
notes: Trehalose synthase TreS of M. smegmatis, locus MSMEG_6515, cloned from genomic DNA into NdeI/HindIII of pET28a; the printed primers run from the start codon to the stop codon; calculated tetramer mass 272,000 Da; also called Msm TreS; MSMEG_6515; source: E. coli BL21 (DE3), purified (Ni-NTA, HiTrap Q, Sephacryl S-300HR)

Series [1] deals with B3. Put plainly: ITC; Pep2 (500 μM in the syringe) titrated into TreS (75 μM monomer); 50 mM sodium phosphate pH 6.5, 300 mM NaCl, 10% glycerol, 25 °C. The conditions noted are these: both partners purified. For orientation: Isothermal titration calorimetry measures the heat released or taken up as one component is titrated into another.
For series [2], the target named is B3. The series is described as above. The conditions noted are these: both partners purified. This is another data set of the same source.
In series [3] the target is T1, Mycobacterium smegmatis trehalose synthase (TreS) (M. smegmatis, UniProt A0R6E0 1-593).
T1 construct: Trehalose synthase TreS of M. smegmatis (MSMEG_6515), cloned from genomic DNA with primers from the start codon to the stop codon; concentrations in the ITC count on the monomer; also called Msm TreS; MsTreS; source: E. coli BL21 (DE3), purified (Ni-NTA, HiTrap Q, Sephacryl S-300HR)
T1 sequence (looked up): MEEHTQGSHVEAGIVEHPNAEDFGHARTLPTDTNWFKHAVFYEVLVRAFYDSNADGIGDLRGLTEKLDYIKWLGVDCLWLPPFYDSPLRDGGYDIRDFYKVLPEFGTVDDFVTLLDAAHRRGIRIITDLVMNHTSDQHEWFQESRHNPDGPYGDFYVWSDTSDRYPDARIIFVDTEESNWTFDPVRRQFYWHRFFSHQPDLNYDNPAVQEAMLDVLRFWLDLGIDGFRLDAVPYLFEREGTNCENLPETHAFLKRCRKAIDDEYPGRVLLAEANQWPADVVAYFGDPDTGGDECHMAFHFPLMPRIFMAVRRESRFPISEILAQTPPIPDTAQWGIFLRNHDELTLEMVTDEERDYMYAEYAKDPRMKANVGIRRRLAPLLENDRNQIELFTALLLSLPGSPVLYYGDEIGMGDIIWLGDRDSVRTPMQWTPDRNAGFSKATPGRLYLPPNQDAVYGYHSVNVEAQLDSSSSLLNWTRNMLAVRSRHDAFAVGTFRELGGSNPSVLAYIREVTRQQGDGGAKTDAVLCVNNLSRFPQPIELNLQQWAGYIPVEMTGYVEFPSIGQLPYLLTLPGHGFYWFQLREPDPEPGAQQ
Put plainly: ITC; Pep2 titrated to 75 uM TreS in the sample chamber, up to a molar ratio [Pep2]/[TreS] of about 1.5; pH 6.5; 200 mM NaCl; 298 K. Particulars: both partners purified.

Series [4] deals with T1, Mycobacterium smegmatis trehalose …. Put plainly: ITC; Pep2 titrated to 75 uM TreS in the sample chamber, up to a molar ratio [Pep2]/[TreS] of about 1.5; pH 6.5; 300 mM NaCl; 298 K. Particulars: both partners purified.
The target is the same in series [5]. As to the kind of experiment: ITC; Pep2 titrated to 75 uM TreS in the sample chamber, up to a molar ratio [Pep2]/[TreS] of about 1.5; pH 6.5; 400 mM NaCl; 298 K. Particulars: both partners purified.
Series [6] deals with the molecule itself. As to the kind of experiment: AUC; sedimentation equilibrium, 50 mM sodium phosphate pH 6.5, 300 mM NaCl, 10% glycerol, 4 °C; 8000, 9000, 10,000 rpm; TreS alone at 6, 4, 2 μM, 1:1 mixture at 3.75, 2.5, 1.25 μM; single-species model.
Series [7] concerns the target B3. Put plainly: ITC; Pep2 (500 μM in the syringe) titrated into TreS (75 μM monomer); 50 mM sodium phosphate pH 7.5, 300 mM NaCl, 10% glycerol, 25 °C. Particulars: both partners purified.
For series [8], the target named is B3. As to the kind of experiment: ITC; Pep2 (500 μM in the syringe) titrated into TreS (75 μM monomer); 50 mM sodium phosphate pH 8.5, 300 mM NaCl, 10% glycerol, 25 °C. Particulars: both partners purified.
Series [9] addresses B3. Put plainly: crystal structure; vapor diffusion of mixtures of M. smegmatis TreS and Pep2 at molar ratios 1:1 to 1:2; 9-10% PEG 8000, 4% glycerol, 200 mM MgCl2, 0.1 M Tris-HCl pH 6.7-7.0; 3.6 Å. Particulars: both partners purified.
The target of series [10] is B3. As to the kind of experiment: AUC; sedimentation equilibrium, 50 mM sodium phosphate pH 6.5, 300 mM NaCl, 10% glycerol, 4 °C; 8000, 9000, 10,000 rpm; TreS alone at 6, 4, 2 μM, 1:1 mixture at 3.75, 2.5, 1.25 μM; single-species model. The conditions noted are these: both partners purified.
Series [11] addresses T2, Mycobacterium tuberculosis maltokinase (Pep2) (M. tuberculosis, UniProt O07177).
T2 construct: also called Mtb Pep2; MtPep2
As to the kind of experiment: SEC. The conditions noted are these: both partners purified.

Series [12] deals with the molecule itself. As to the kind of experiment: SEC.

B1: N-terminally truncated M. smegmatis Pep2 (Pep2-Δ70) (domain or fragment)
chain: not shown
notes: Maltokinase Pep2 of M. smegmatis (MSMEG_6514) with a 70-amino acid N-terminal truncation; the whole protein has 441 residues; The first residue 71 follows from the stated 70-residue truncation; also called Msm Pep2-Δ70; source: E. coli BL21 (DE3), purified (as WT Pep2, NaCl 300 mM before ion exchange)
Broadly, the Kd is the equilibrium constant for the complex coming apart. One may read the stoichiometry N as a count of units in the complex or per binding partner. Turning to B1, the Kd in series [1] is 28.6 µM. Further, in [2], the Ka worked out at 35000 M⁻¹, the Kd was found to be 26.8 µM, the dH is -74900 J/mol and the “stoichiometry N” value turned out to be 0.681 ± 0.004.

B2: Mycobacterium smegmatis maltokinase (Pep2) (enzyme)
chain: not shown
notes: Maltokinase Pep2 of M. smegmatis (MSMEG_6514); 441 residues; cloned with primers from the start codon to the stop codon; also called Msm Pep2; MsPep2; source: E. coli BL21 (DE3), purified (Ni-NTA, HiTrap Q, Sephacryl S-300HR)
As to B2, in [3], the Ka is 210000 M⁻¹, the Kd turned out to be 4.8 µM and the “stoichiometry N” value was determined as 0.79 ± 0.015. In series [4], the Ka was 222000 M⁻¹, the dissociation constant Kd is 4.5 µM and the “stoichiometry N” value was determined as 0.54 ± 0.01. In series [5], the Ka came out at 210000 M⁻¹, the Kd was determined as 4.8 µM and the “stoichiometry N” value is 0.58 ± 0.01.
With B3, in series [6], the “stoichiometry N” value stood at 4.

B4: Mycobacterium smegmatis maltokinase (Pep2) (enzyme)
chain: not shown
notes: Maltokinase Pep2 of M. smegmatis, locus MSMEG_6514, 441 residues, cloned from genomic DNA into NdeI/HindIII of pET28a; the printed primers run from the start codon to the stop codon; Monomer by size exclusion; calculated mass 48,800 Da; also called Msm Pep2; MsPep2; source: E. coli BL21 (DE3), purified (Ni-NTA, HiTrap Q, Sephacryl S-300HR)
With B4, the Ka in series [2] amounted to 287000 M⁻¹; in series [7], 160000 M⁻¹; in series [8] it was 28700 M⁻¹. For the same molecule, the equilibrium dissociation constant (Kd) in series [2] came to 3.48 µM; in series [7], 6.25 µM; in series [8] it was 34.8 µM. The dH in series [2] is -131000 J/mol; in series [7], -78400 J/mol; in [8], -93200 J/mol. Besides, the “stoichiometry N” value in [2] was 0.574 ± 0.007; in series [7], 0.459 ± 0.008; in series [8], 0.22 ± 0.04; in [9], 1 Pep2 per TreS protomer; in series [10], 2 copies of Pep2 per TreS tetramer.

B5: Mycobacterium tuberculosis trehalose synthase (TreS), wild type (enzyme)
chain: MNEAEHSVEHPPVQGSHVEGGVVEHPDAKDFGSAAALPADPTWFKHAVFYEVLVRAFFDASADGSGDLRGLIDRLDYLQWLGIDCIWLPPFYDSPLRDGGYDIRDFYKVLPEFGTVDDFVALVDAAHRRGIRIITDLVMNHTSESHPWFQESRRDPDGPYGDYYVWSDTSERYTDARIIFVDTEESNWSFDPVRRQFYWHRFFSHQPDLNYDNPAVQEAMIDVIRFWLGLGIDGFRLDAVPYLFEREGTNCENLPETHAFLKRVRKVVDDEFPGRVLLAEANQWPGDVVEYFGDPNTGGDECHMAFHFPLMPRIFMAVRRESRFPISEIIAQTPPIPDMAQWGIFLRNHDELTLEMVTDEERDYMYAEYAKDPRMKANVGIRRRLAPLLDNDRNQIELFTALLLSLPGSPVLYYGDEIGMGDVIWLGDRDGVRIPMQWTPDRNAGFSTANPGRLYLPPSQDPVYGYQAVNVEAQRDTSTSLLNFTRTMLAVRRRHPAFAVGAFQELGGSNPSVLAYVRQVAGDDGDTVLCVNNLSRFPQPIELDLQQWTNYTPVELTGHVEFPRIGQVPYLLTLPGHGFYWFQLTTHEVGAPPTCGGERRL
notes: also called Mtb TreS; WT Mtb TreS
For the molecule B5, the binding result in series [11] was “binds”. Also, the “stoichiometry N” value in [12] was determined as 4.
